From patent US20220185894A1

Columns and labels:
[1] = biological target: mouse LAG-3 expressed on cells (mouse) (UniProt Q61790); assay: flow cytometry on HEK cells expressing murine LAG-3
[2] = biological target: mouse LAG-3 expressed on cells (mouse) (UniProt Q61790); assay: flow cytometry on HEK cells expressing mouse LAG-3
[3] = biological target: human FcγRIIa (R&D Systems, 1330-CD) (human) (UniProt P12318); assay: SPR, BIAcore 3000; FcγR immobilised, 500 µg/ml injected
[4] = biological target: CD20 endogenously expressed on Raji cells (UniProt P11836); assay: cell-based or functional assay
[5] = biological target: human FcγRIIb/c (R&D Systems, 1875-CD) (human) (UniProt P31994); assay: SPR, Biacore T200; FcγR immobilised, 500 µg/ml injected
[6] = biological target: human FcγRIIa (R&D Systems, 1330-CD) (human) (UniProt P12318); assay: as above
[7] = biological target: human FcγRIIb/c (R&D Systems, 1875-CD) (human) (UniProt P31994); assay: SPR, BIAcore 3000; FcγR immobilised, 500 µg/ml injected
[8] = biological target: human FcγRI (R&D Systems, 1257-FC) (human) (UniProt P12314); assay: SPR, BIAcore 3000; FcγR immobilised, 100 µg/ml injected
[9] = biological target: human FcγRI (R&D Systems, 1257-FC) (human) (UniProt P12314); assay: SPR, Biacore T200; FcγR immobilised, 200 µg/ml injected
[10] = biological target: human FcγRIIIa (R&D Systems, 4325-FC) (human) (UniProt P08637); assay: as above
Chain of human FcγRIIIa (R&D Systems, 4325-FC) (human) (P08637 17-208 limits assumed): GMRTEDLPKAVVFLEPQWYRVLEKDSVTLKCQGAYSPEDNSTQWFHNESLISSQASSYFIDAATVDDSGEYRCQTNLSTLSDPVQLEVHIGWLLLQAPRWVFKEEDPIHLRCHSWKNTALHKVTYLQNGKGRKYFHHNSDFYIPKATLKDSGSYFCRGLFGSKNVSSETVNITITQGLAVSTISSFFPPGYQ

Chain of human FcγRI (R&D Systems, 1257-FC) (human) (P12314 16-288 limits assumed): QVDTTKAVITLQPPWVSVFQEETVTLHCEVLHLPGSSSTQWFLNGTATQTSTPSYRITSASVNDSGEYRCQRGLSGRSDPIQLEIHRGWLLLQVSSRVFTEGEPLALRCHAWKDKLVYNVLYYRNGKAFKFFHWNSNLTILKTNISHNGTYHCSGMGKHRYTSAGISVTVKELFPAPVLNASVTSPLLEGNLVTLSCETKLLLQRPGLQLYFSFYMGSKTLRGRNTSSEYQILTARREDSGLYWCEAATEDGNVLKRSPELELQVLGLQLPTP
Chain of human FcγRIIa (R&D Systems, 1330-CD) (human) (P12318 36-218 limits assumed): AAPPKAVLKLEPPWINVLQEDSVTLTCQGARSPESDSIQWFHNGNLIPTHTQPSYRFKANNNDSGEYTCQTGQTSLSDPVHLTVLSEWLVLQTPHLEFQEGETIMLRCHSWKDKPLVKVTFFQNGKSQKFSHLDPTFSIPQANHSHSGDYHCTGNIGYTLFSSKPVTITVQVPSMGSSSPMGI
Chain of mouse LAG-3 expressed on cells (mouse) (Q61790 24-521 limits assumed): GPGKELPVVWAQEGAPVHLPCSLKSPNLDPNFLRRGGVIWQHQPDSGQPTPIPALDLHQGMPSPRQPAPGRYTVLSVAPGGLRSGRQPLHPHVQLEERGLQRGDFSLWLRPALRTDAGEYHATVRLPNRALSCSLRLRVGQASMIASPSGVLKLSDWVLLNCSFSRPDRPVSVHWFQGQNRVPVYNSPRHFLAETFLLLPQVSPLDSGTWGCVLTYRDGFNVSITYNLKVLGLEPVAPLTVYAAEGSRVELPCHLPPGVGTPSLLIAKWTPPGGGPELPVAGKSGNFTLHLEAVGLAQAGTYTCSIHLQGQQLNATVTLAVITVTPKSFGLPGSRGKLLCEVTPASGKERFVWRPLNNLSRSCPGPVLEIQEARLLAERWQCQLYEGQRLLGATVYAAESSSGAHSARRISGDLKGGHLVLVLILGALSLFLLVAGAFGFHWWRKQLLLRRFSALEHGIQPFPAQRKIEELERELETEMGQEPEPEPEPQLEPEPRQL
Chain of CD20 endogenously expressed on Raji cells (P11836 whole entry): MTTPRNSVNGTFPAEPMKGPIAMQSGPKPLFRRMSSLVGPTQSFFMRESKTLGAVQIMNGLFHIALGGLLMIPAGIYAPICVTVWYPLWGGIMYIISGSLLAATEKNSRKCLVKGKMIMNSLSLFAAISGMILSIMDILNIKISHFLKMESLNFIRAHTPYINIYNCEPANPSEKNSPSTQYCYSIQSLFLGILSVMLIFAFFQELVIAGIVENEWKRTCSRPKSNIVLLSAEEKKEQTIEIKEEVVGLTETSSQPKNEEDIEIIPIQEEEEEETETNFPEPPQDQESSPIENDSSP
Chain of human FcγRIIb/c (R&D Systems, 1875-CD) (human) (P31994 46-217 limits assumed): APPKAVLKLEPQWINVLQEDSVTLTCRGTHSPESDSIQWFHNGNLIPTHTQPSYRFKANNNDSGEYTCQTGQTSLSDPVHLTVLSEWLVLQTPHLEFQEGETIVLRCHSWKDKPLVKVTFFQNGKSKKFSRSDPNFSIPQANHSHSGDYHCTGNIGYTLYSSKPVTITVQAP

binding response at end of association (RU) [3] [RU] | binding response at end of association (RU) [5] [RU] | binding response at end of association (RU) [6] [RU] | binding response at end of association (RU) [9] [RU] | binding response at end of association (RU) [10] [RU] | Substance | also measured
– | – | – | – | – | benchmark anti-mouse LAG-3 mAb C9B7W (2B Scientific, BE0174-50MG) (antibody) | EC50 [1]: 27 nM; EC50 [2]: 79 nM; fold poorer affinity (EC50) than the Fcabs [2]: 17 fold
7 | – | – | – | – | mouse IgG1 (Sigma, P5305) (antibody) | –
– | – | – | – | – | anti-CD20 antibody Rituximab (generic version, IgG1 format) | ADCC, LDH release, maximum lysis of LAG-3 expressing Raji cells [4]: 40%; ADCC, LDH release, maximum lysis of PD-L1 expressing Raji cells [4]: 40%; CDC, LDH release, maximum lysis of PD-L1 expressing Raji cells [4]: < 60%
8 | 15.1 | 4.3 | 9 | 3.1 | monoclonal IgG4 isotype mAb to an irrelevant target (antibody) | binding response at end of association (RU) [7]: 9 RU; binding response at end of association (RU) [8]: 8 RU
9 | 7.4 | 9.7 | 0 | 1.9 | monoclonal IgG2 isotype mAb to an irrelevant target (antibody) | –
